Measurements as given in paper PMC10998907.

Columns and labels:
[1] = molecular target: NiV-RBP ectodomain homotetramer (Nipah virus); experiment: cryo-EM structure
[2] = molecular target: NiV-RBP ectodomain (NiV attachment glycoprotein ectodomain), homotetramer (Nipah virus) (UniProt Q9IH62); experiment: negative-stain EM

Substance | stoichiometry N [1] | stoichiometry N [2]
NiV-RBP ectodomain homotetramer (domain or fragment) | 4 | 
NiV-RBP ectodomain (NiV attachment glycoprotein ectodomain), homotetramer (from UniProt Q9IH62 1-602) (domain or fragment) |  | 4
